B1: ZNF8 (parent)
chain: KPYTCSVCGKSFSRTTCLFLHLRT

Variants of: B1
Experiment: protein stability index of a GFP-peptide fusion (GPS, HEK-293T) (PSI 1-6); higher = more stable
Details: c terminus: a fixed tail appended
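Also: lentivirally expressed fusions sorted by FACS into six bins by GFP to DsRed ratio, PSI derived from sequencing read proportions per bin multiplied by bin number.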

Variant	protein stability index
KPYTCSVCGKSFSRTTDLFLHLRT [C17D]	3.67
KPYTCSVCGKSFSRTTELFLHLRT [C17E]	3.61
KPYTCSVCGKSFSRTTFLFLHLRT [C17F]	1.92
KPYTCSVCGKSFSRTTGLFLHLRT [C17G]	2.22
KPYTCSVCGKSFSRTTHLFLHLRT [C17H]	2.04
KPYTCSVCGKSFSRTTILFLHLRT [C17I]	2.14
KPYTCSVCGKSFSRTTKLFLHLRT [C17K]	2.35
KPYTCSVCGKSFSRTTLLFLHLRT [C17L]	2.39
KPYTCSVCGKSFSRTTMLFLHLRT [C17M]	2.13
KPYTCSVCGKSFSRTTNLFLHLRT [C17N]	1.96
KPYTCSVCGKSFSRTTPLFLHLRT [C17P]	1.91
KPYTCSVCGKSFSRTTQLFLHLRT [C17Q]	2.58
KPYTCSVCGKSFSRTTRLFLHLRT [C17R]	2.35
KPYTCSVCGKSFSRTTSLFLHLRT [C17S]	1.84
KPYTCSVCGKSFSRTTTLFLHLRT [C17T]	2.42
KPYTCSVCGKSFSRTTVLFLHLRT [C17V]	1.85
KPYTCSVCGKSFSRTTWLFLHLRT [C17W]	1.5
KPYTCSVCGKSFSRTTYLFLHLRT [C17Y]	2.15
KPYTCSVCGKSFSRTTCAFLHLRT [L18A]	2.19
KPYTCSVCGKSFSRTTCCFLHLRT [L18C]	2.31
KPYTCSVCGKSFSRTTCDFLHLRT [L18D]	2.2
KPYTCSVCGKSFSRTTCEFLHLRT [L18E]	2.45
KPYTCSVCGKSFSRTTCFFLHLRT [L18F]	1.95
KPYTCSVCGKSFSRTTCGFLHLRT [L18G]	2.44

Variant	protein stability index
KPYTCSVCGKSFSRTTCHFLHLRT [L18H]	1.96
KPYTCSVCGKSFSRTTCIFLHLRT [L18I]	2.49
KPYTCSVCGKSFSRTTCKFLHLRT [L18K]	2.9
KPYTCSVCGKSFSRTTCMFLHLRT [L18M]	2.33
KPYTCSVCGKSFSRTTCNFLHLRT [L18N]	2.49
KPYTCSVCGKSFSRTTCPFLHLRT [L18P]	2.32
KPYTCSVCGKSFSRTTCQFLHLRT [L18Q]	2.11
KPYTCSVCGKSFSRTTCRFLHLRT [L18R]	1.67
KPYTCSVCGKSFSRTTCSFLHLRT [L18S]	1.89
KPYTCSVCGKSFSRTTCTFLHLRT [L18T]	2.27
KPYTCSVCGKSFSRTTCVFLHLRT [L18V]	2.27
KPYTCSVCGKSFSRTTCWFLHLRT [L18W]	2.18
KPYTCSVCGKSFSRTTCYFLHLRT [L18Y]	2.43
KPYTCSVCGKSFSRTTCLALHLRT [F19A]	1.98
KPYTCSVCGKSFSRTTCLCLHLRT [F19C]	3.11
KPYTCSVCGKSFSRTTCLDLHLRT [F19D]	2.79
KPYTCSVCGKSFSRTTCLELHLRT [F19E]	2.57
KPYTCSVCGKSFSRTTCLGLHLRT [F19G]	1.93
KPYTCSVCGKSFSRTTCLHLHLRT [F19H]	2.26
KPYTCSVCGKSFSRTTCLILHLRT [F19I]	1.91
KPYTCSVCGKSFSRTTCLKLHLRT [F19K]	1.93
KPYTCSVCGKSFSRTTCLLLHLRT [F19L]	1.73
KPYTCSVCGKSFSRTTCLMLHLRT [F19M]	2.35
KPYTCSVCGKSFSRTTCLNLHLRT [F19N]	2.36

Variant	protein stability index
KPYTCSVCGKSFSRTTCLPLHLRT [F19P]	2.45
KPYTCSVCGKSFSRTTCLQLHLRT [F19Q]	2.54
KPYTCSVCGKSFSRTTCLRLHLRT [F19R]	2.35
KPYTCSVCGKSFSRTTCLSLHLRT [F19S]	2.03
KPYTCSVCGKSFSRTTCLTLHLRT [F19T]	1.78
KPYTCSVCGKSFSRTTCLVLHLRT [F19V]	1.9
KPYTCSVCGKSFSRTTCLWLHLRT [F19W]	1.57
KPYTCSVCGKSFSRTTCLYLHLRT [F19Y]	2.44
KPYTCSVCGKSFSRTTCLFAHLRT [L20A]	2.66
KPYTCSVCGKSFSRTTCLFCHLRT [L20C]	2.63
KPYTCSVCGKSFSRTTCLFDHLRT [L20D]	2.11
KPYTCSVCGKSFSRTTCLFEHLRT [L20E]	3.07
KPYTCSVCGKSFSRTTCLFFHLRT [L20F]	2.14
KPYTCSVCGKSFSRTTCLFGHLRT [L20G]	2.1
KPYTCSVCGKSFSRTTCLFHHLRT [L20H]	2.79
KPYTCSVCGKSFSRTTCLFIHLRT [L20I]	1.99
KPYTCSVCGKSFSRTTCLFKHLRT [L20K]	2.32
KPYTCSVCGKSFSRTTCLFMHLRT [L20M]	1.74
KPYTCSVCGKSFSRTTCLFNHLRT [L20N]	2.56
KPYTCSVCGKSFSRTTCLFPHLRT [L20P]	2.27
KPYTCSVCGKSFSRTTCLFQHLRT [L20Q]	2.96
KPYTCSVCGKSFSRTTCLFRHLRT [L20R]	2.42
KPYTCSVCGKSFSRTTCLFSHLRT [L20S]	2.17
KPYTCSVCGKSFSRTTCLFTHLRT [L20T]	2.65

Variant	protein stability index
KPYTCSVCGKSFSRTTCLFWHLRT [L20W]	1.39
KPYTCSVCGKSFSRTTCLFYHLRT [L20Y]	1.94
KPYTCSVCGKSFSRTTCLFLALRT [H21A]	2.18
KPYTCSVCGKSFSRTTCLFLCLRT [H21C]	2.37
KPYTCSVCGKSFSRTTCLFLDLRT [H21D]	1.35
KPYTCSVCGKSFSRTTCLFLELRT [H21E]	2.31
KPYTCSVCGKSFSRTTCLFLFLRT [H21F]	1.65
KPYTCSVCGKSFSRTTCLFLGLRT [H21G]	1.94
KPYTCSVCGKSFSRTTCLFLILRT [H21I]	1.59
KPYTCSVCGKSFSRTTCLFLKLRT [H21K]	2.04
KPYTCSVCGKSFSRTTCLFLLLRT [H21L]	2.39
KPYTCSVCGKSFSRTTCLFLMLRT [H21M]	2.16
KPYTCSVCGKSFSRTTCLFLNLRT [H21N]	1.6
KPYTCSVCGKSFSRTTCLFLPLRT [H21P]	2.01
KPYTCSVCGKSFSRTTCLFLQLRT [H21Q]	2.28
KPYTCSVCGKSFSRTTCLFLRLRT [H21R]	1.4
KPYTCSVCGKSFSRTTCLFLSLRT [H21S]	2.04
KPYTCSVCGKSFSRTTCLFLTLRT [H21T]	1.56
KPYTCSVCGKSFSRTTCLFLVLRT [H21V]	1.8
KPYTCSVCGKSFSRTTCLFLWLRT [H21W]	1.75
KPYTCSVCGKSFSRTTCLFLYLRT [H21Y]	1.57
KPYTCSVCGKSFSRTTCLFLHART [L22A]	2.08

— the supplement of paper PMC10567573
